# Assay results from the RNAGym collection of RNA variant scans (doi:10.1073/pnas.2313332121).
# B1: TPR t1 (parent)
# chain: GACCAAUCUGCCCUCAGAGCUCGAGAACAUCUUCGGAUGCAGAGGAGGCAGGCUUCGGUGGCGCGAUAGCGCCAACGUCCUCAACCUCCAAUGCAUCCCACCACAUGAUGAUGCCUGAAGAGCCUUGGUUUUUUG
# Variants of: B1
# Assay: polymerase ribozyme fitness, log enrichment relative to wild type (log ratio); higher = more active; in vitro selection for triplet polymerase activity
# Summary of the method: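 Fitness compares each genotype's enrichment to that of the wild type on a logarithmic scale, averaging replicates with inverse-variance weights. The logarithm is base 2. Enrichment came from Illumina sequencing of input and output libraries after one triplicate round of in vitro selection, which included frozen incubation at −7 °C, of PCR-built, transcribed mutant libraries of each subunit of a heterodimeric triplet polymerase ribozyme. Only genotypes with ≥10 input reads and ≥1 read per output were kept.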
row,Variant,polymerase ribozyme fitness (log ratio)
1,GACCAAUCUGCCCUCAGAGCUCGAGAACAUCUUCGGUUGCAGAGGAGGCACGCUUCGGUGGCGCGAUAGCGCCAACGUCCUCAACCUACAAUGCAUCCCACCACAUGAUGAUGCCUGAAGAGCCUUGGUUUUUUG [A37U G51C C88A],-5.1
2,GACCAAUCUGCCCUCAGAGCUCGAGAACAUCUUCGGAAGCUGAUGAGGCAGGCUUCGGUGGCGCGAUAGCGCCAACGUCCUCAACCUCCAAUGCAUCCCACCACAUGAUGAUACCUGAAGAGCCUUGGUUUUUUG [U38A A41U G44U G113A],-5.6
3,GACCAAUCUGCCCUCAGAGCUCGAGAACAUCUUCGGAAGCAGAGGAGGUAGGCUUCGGUGGCGCGAUAGCGCCAACGUCCUCAACCUUCAAUGCAUCCCACCACAUGAUGAUGCCUGAAGAGCCUUGGUUUUUUG [U38A C49U C88U],-1.59
4,GACCAAUCUGCCCUCAGAGCUCGAGAACAUCUUCGGUUGCAGAGGAGGCAGCCUUCGGUGGCGCGAUAGCGCCAACGUCCUCAACCUCCAAUGCAUCCCACCACAUGAUGAUGCCUGAACAGCCUUGGUUUUUUG [A37U G52C G120C],0.23
5,GACCAAUCUGCCCUCAGAGCUCGAGAACAUCUUCGGUUGCAGAGGAGGCAGUCUUCGGUGGCGCGAUAGCGCCAACGUCCUCAACCUCCAAUGCAUCCCACCACAUGAUGAUGCCUGAAGAGCCUUGGUUUUUUG [A37U G52U],-1.37
6,GACCAAUCUGCCCUCAGAGCUCGAGAACAUCUUCGGUUGCAGAGGAGGCAGGCUUCAGUGGCGCGCUAGCGCCAACGUCCUCAACCUCCAAUGCAUCCCACCACAUGAUGAUGCCUGAAGAGCCUUGGUUUUUUG [A37U G57A A66C],-4.07
7,GACCAAUCUGCCCUCAGAGCUCGAGAACAUCUUCGGUUGCAGAGGAGGCAGGCUUCGGUGGCGCGAUACCGCCAACGUCCUCAACCUCUAAUGCAUCCCACCACAUGAUGAUGCCUGAAGAGCCUUGGUUUUUUG [A37U G69C C89U],-2.29
8,GACCAAUCUGCCCUCAGAGCUCGAGAACAUCUUCGGUUGCAGAGGAGGCAGGCAUCGGUGGCGCGAUAGCGCCAACGUCCUCAACCUCCAAUGCAUCCCACCACAUGAUGAUGCCUGAAGAGUGUUGGUUUUUUG [A37U U54A C123U C124G],1.44
9,GACCAAUCUGCCCUCAGAGCUCGAGAACAUCUUCGGAAUCAGAGGAGGCAGGCUUCGGUGUCGCGAUAGCGCCAACGUCCUCAACCUCUAAUGCAUCCCACCACAUGAUGCUGCCUGAAGAGCCUUGGUUUUUUG [U38A G39U G61U C89U A111C],-3.54
10,GACCAAUCUGCCCUCAGAGCUCGAGAACAUCUUCGGUUGCAGAGGAGGCAGGCUUCGGUGGCGCGAUACCGCCAACGUCCUCAACCUCCAAUGCAUCCCACCACAUGAUGAUGCCUGAAGAGCCUUGGUUUUUUG [A37U G69C],-1.75
11,GACCAAUCUGCCCUCAGAGCUCGAGAACAUCUUCGGUUGCAGAGGAGGCAGGCUUCGGUGGCGCGAUAGCGCCAACGUCCUCAACCUCCAAUGCAUCCCACCACACGAUGAUGCCUGAGGAGCCUUGGUUUUUUG [A37U U106C A119G],0.31
12,GACCAAUCUGCCCUCAGAGCUCGAGAACAUCUUCGGUUGCAGAGGAGGCAGGCUUCGGUGGCGCGAUAGCGCCAACGUCCUCAACCUCCAAUGCAUCCCACCACAUGAUGAUGCCUGAAGAGCCAUGGUUUUUUG [A37U U125A],-1.35
13,GACCAAUCUGCCCUCAGAGCUCGAGAACAUCUUCGGUUGCAGAGGAGGCAGGCUUCGGGGGCGCGAUAGCGCCAACGUCCUCAACCUCCAAUGCAUCCCACCACAUGAUGAUGCCUGAAGAGCGUUGGUUUUUUG [A37U U59G C124G],1.68
14,GACCAAUCUGCCCUCAGAGCUCGAGAACAUCUUCGGUUGCAGAGGAGGCAGGCUUCGGUGGCGCGAUAGCGCCAACUUCCUCAACCUCCAAUGCAUCCCACCACAUGAUGAUGCCUGAAGAGCCUUGGUUUUUUG [A37U G77U],-0.679
15,GACCAAUCUGCCCUCAGAGCUCGAGAACAUCUUCGGUUGCAGAGGAGGCAGGCUUCGGUGGCCCGAUAGCGCCAACGUCCUCAACCUCCAAUGCCUCCCACCACAUGAUGAUGCCUGAAGAGCCUUGGUUUUUUG [A37U G63C A95C],-1.93
16,GACCAAUCUGCCCUCAGAGCUCGAGAACAUCUUCGGUUGCAGAGGAGGCAGGCUUCGGUGGCGCGAUAGCACCAACGUCCUCAACCUCCAAUGCAUCCCACCACAUGAUGAUGCCUGAAGAGCCUUGGUUUUUUG [A37U G71A],-1.12
17,GACCAAUCUGCCCUCAGAGCUCGAGAACAUCUUCGGUUGCAGAGGAGGCAGGCUUCGGUGGCGCGAUAGCGCCAACGUCCACAACCUCCAAUGCAUCCCAACACAUGAUUAUGCCUGAAGAGCCUUGGUUUUUUG [A37U U81A C101A G110U],-5.35
18,GACCAAUCUGCCCUCAGAGCUCGAGAACAUCUUCGGAAGCAGUGGAGGCAGGUUUCGGUGGCGCGAUAGCGCCAACGUCCUCAACCUCCAAUGCAUCCCACCACAUGAUGACGCCUGAAGAGCCUUGGUUUUUUC [U38A A43U C53U U112C G135C],-0.362
19,GACCAAUCUGCCCUCAGAGCUCGAGAACAUCUUCGGAAGCAUAGGAGGCAGGCUUCGGUGGCCCGAUAGCGCCAACGUUCUCAACCUCCAAUGCAUCCCACCACAUGAUGAUGCCUGAAGAGCCUUGGUUUUUUG [U38A G42U G63C C79U],-3.1
20,GACCAAUCUGCCCUCAGAGCUCGAGAACAUCUUCGGUUGCAGAGGAGGCAGGCUUCGGUGGCGCGAUAGCGCCAACGUCCUCAACCUCCAAUUCAUCCCACCACAUGAUGAUGCCUGAAGAGCCUUGGUUUUUUG [A37U G93U],-1.86
21,GACCAAUCUGCCCUCAGAGCUCGAGAACAUCUUCGGAAGCAGAGGAGGCAGGCUUCGGUGGCGCGAUAGCGCCAACGUCCUCAACGUCCAAUGCAUCCCACCACAUGAUGAUGCCUGUAGAGCCUUGGUUUUUUG [U38A C86G A118U],-1.76

row,Variant,polymerase ribozyme fitness (log ratio)
1,GACCAAUCUGCCCUCAGAGCUCGAGAACAUCUUCGGUUGCAGAGGAGGCAGGCUUCGGUGUCGCGAUAGCGCCAACGUCCUCAACCUCCAAUGCAUCCCACCACAUGAUGAUGCCUGAAGAGCCUUGGUUUUUUG [A37U G61U],-0.28
2,GACCAAUCUGCCCUCAGAGCUCGAGAACAUCUUCGGUUGCAGAGGAGGCAGGCUUCGGUGCCGCGAUAGCGCCAACGUCCUCAACCUCCAAUGCAUCCCACCACAUGAUGAUGCCUGAAGAGCCUUGGUUUUUUG [A37U G61C],-1.86
3,GACCAAUCUGCCCUCAGAGCUCGAGAACAUCUUCGGUUGCAGAGGAGUCAGGCUUCGGUAGCGCGAUAGCGCCAACGUCCUGAACCUCCAAUGCAUCCCACCACAUGAUGAUGCCUGAAGUGCCUUGGUUUUUUG [A37U G48U G60A C82G A121U],1.39
4,GACCAAUCUGCCCUCAGAGCUCGAGAACAUCUUCGGAAGCCGAGGAGGCAGGCUUCGGUGGCGCGAUAGCGUCAACGUCCUCAACCUCCAAUGCAUCCCACCACAUGAUGAUGCCUGAAGAGCCUUUGUUUUUUG [U38A A41C C72U G127U],-4.53
5,GACCAAUCUGCCCUCAGAGCUCGAGAACAUCUUCGGUUGCAGAGGAGGCAGGCUUCGGUGGCGCGAUAGCGCCAACGUCCUCAACCUCCAAUGCAUCCCACCACAUGAUGAUGCCUGAACAGCCUUGGUUUUUUG [A37U G120C],-0.129
6,GACCAAUCUGCCCUCAGAGCUCGAGAACAUCUUCGGUUGCAGAGGAGGCAGGCUUCGGUGGCGCGAUAGCGCCAACGUCCUCAACCUCCAAUGCAUCCCACCACAUGAUGAUGCCUGAAGAGCCUUGGUUCUUUG [A37U U131C],-0.648
7,GACCAAUCUGCCCUCAGAGCUCGAGAACAUCUUCGGUUGCAGAGGAGGCAGGCUUCGGUAGCGCGAUAGCGCCAACGUCCUCAACCUCCAAUCCAUCCCACCACAUGAUGACGCGUGAAGAUCCUUGGUAUUUUG [A37U G60A G93C U112C C115G G122U U130A],-6.13
8,GACCAAUCUGCCCUCAGAGCUCGAGAACAUCUUCGGUUGCAGAGGAGGCAGGCUUCGAUGGCGCGAUAGCGCCAACGUCCUCAACCUCCAAUGCAUCCCCCCACAUGAUGAUGUCUGAAGAGCCUUGGUUUUGUG [A37U G58A A100C C114U U133G],-4.99
9,GACCAAUCUGCCCUCAGAGCUCGAGAACAUCUUCGGUUGCAGAGGAGGCAGGCUUCGGUGGCGCGAUAGCGCCAACGUCCUCAACCUCCAAUGCAUCCCACCACAUGAUGAAGCCUGAAGAGCCCUGGUUUUUUG [A37U U112A U125C],1.04
10,GACCAAUCUGCCCUCAGAGCUCGAGAACAUCUUCGGUUGCAGAGGAGUCAGGCUACGGUGGCGCGAUAGCGCCAACGUCCUCAACCUCCAAUGCAUCCCACCACAUGAUGAUGCCUGAAGAGCCUUGGUUUUUUG [A37U G48U U55A],-1.56
11,GACCAAUCUGCCCUCAGAGCUCGAGAACAUCUUCGGUUGCAGAGGAGGCAGGCUUCGGUGGCCCGAUAGCGCCAACGUCCUCAACCUCCAAUGCAUCCCACCAUAUGAUGAUGCCCGAAGAGCCUUGGUUUUUUG [A37U G63C C104U U116C],-1.47
12,GACCAAUCUGCCCUCAGAGCUCGAGAACAUCUUCGGAAGCAAAGGAGGCAGGCUUCGGUGGCGCGAUAGCGCCAACGUCCUCAACCUCCAAUGCAUCCCACCACAUGAUGAUGCCUGAAGAGCCUUGGUUUUUUG [U38A G42A],-2.86
13,GACCAAUCUGCCCUCAGAGCUCGAGAACAUCUUCGGAAGCAGAGGAGGCAGGCUUCGGUGGCGCGAUAGCGCCAACGUCCUCAACCUCCAAUGCAUCCCAACACAUGAUGAUGCCUGAUGUUCCUUGGUUUUUUG [U38A C101A A119U A121U G122U],-2.88
14,GACCAAUCUGCCCUCAGAGCUCGAGAACAUCUUCGGUUGCAGAGGAGGCAGGCUUCGGUGGCCCGAUUGCGCCAACGACCUCAACCUCCAAUGCAUCCCACCACAAGAUGAUGCCUGAAGAGCCUUGGUUUUUUG [A37U G63C A68U U78A U106A],-5.67
15,GACCAAUCUGCCCUCAGAGCUCGAGAACAUCUUCGGAAGCAGAGGAGGCAGGCUUCGGUGGCGCGAUAGCGCUAACGUCCUCAACCUCCAAUGCAUCCCACCACAUGAUGAUGACUGAAGUGCCUUGGUUUUUUG [U38A C73U C114A A121U],-1.65
16,GACCAAUCUGCCCUCAGAGCUCGAGAACAUCUUCGGUUGCAGAGGAGGCAGGCUUCCGUGGCGCGAUAGCGCCAACGUCCUCAAUCUCCAAUGCAUCCCACCACAUGAUGAUGCCUGAAGAGCCAUGGUUUUUUG [A37U G57C C85U U125A],-1.95
17,GACCAAUCUGCCCUCAGAGCUCGAGAACAUCUUCGGAAGCAGAUGAGGCAGUCUUCGGUGGCGCGAUAGCGGCAACGUCCUCAACCUCCAAUGCAUCCCACCACAUGAUGAUGCCUGAAGAGCCUUGGUUUUUUG [U38A G44U G52U C72G],-4.73
18,GACCAAUCUGCCCUCAGAGCUCGAGAACAUCUUCGGUUGCAGAGGAGGCAGGCUUCGGCGGCGCGAUAGUGCCAACGUCCUCAACCUCCAAUGCAUCCCACCACAUGAUGAUGCCUGAAGAGCCUUGGUUUUUUG [A37U U59C C70U],-1.46
19,GACCAAUCUGCCCUCAGAGCUCGAGAACAUCUUCGGUUGCAGAGGAGGCAGGCUUCAGUGGCGCGAUAGCGCCAACGUCCUCAACCUCGAAUGCAUCCCACCACAUGAUGAUGCCUGAAGAGCCUUGGUUUUUUG [A37U G57A C89G],-3.91
20,GACCAAUCUGCCCUCAGAGCUCGAGAACAUCUUCGGAAGCAGAGGAGCCAGGCUUCGGUGGCCCGAUAGCGCCAACGUCCUCAAUCUCCAAUGCAUCCCACCACAUGAUAAUGCCUGAAGAGCCUUGGUUUUUUG [U38A G48C G63C C85U G110A],-5.19
21,GACCAAUCUGCCCUCAGAGCUCGAGAACAUCUUCGGAAGCAGAGUAGGCAGGCUUCUGUGGCGCGAUAGCGCCAACGUCCUCAACCUCCAAUGCAUCCCACCACAUGAUGAUGCCUGAAGAGCCUUGGUUUUUUG [U38A G45U G57U],-2.52
